Results taken from publication PMC314469, “Protein Interaction Networks by Proteome Peptide Scanning” (PLoS Biology, 2004).

Key:
[1] = target: T1, amphyphisin SH3 (AMPH_HUMAN), P49418; assay: SPOT array
T1 chain: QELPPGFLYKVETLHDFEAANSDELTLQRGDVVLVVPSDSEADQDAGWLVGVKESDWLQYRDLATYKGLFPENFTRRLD

[2] = target: endophilin SH3 (SH3G2_HUMAN), Q99962; assay: SPOT array

Binder | normalised SPOT signal, Boehringer light units (BLU); mean over the file's lines of this peptide [1] | normalised SPOT signal, Boehringer light units (BLU); mean over the file's lines of this peptide [2]
PPQVPSRPNRAPPG [Q05193 829-842] | 11000 | 19600
PPPPPTKPPETEAQ [Q9UJJ7 281-295] | 59.9 | 63.1
PPPPPARPPARRAS [Q9H1V5 1094-1108] | 11500 | 13100
ASGGPRRPERHLPP [Q9Y6R0 7-20] | 3320 | 12600
PPQPPQRPPPPTGL [O15056 1050-1064] | 1380 | 9830
PPPPPPRPPKQQPP [Q9UL51 22-36] | 994 | 1160
PPPRPPRPPSPPPE [Q9UPS6 163-177] | 5310 | 9410
PPPVPLRPPEHFIN [Q07890 1215-1229] | 189 | 435
PPQVPSRPTRAPPR [Q9H0P3 825-838] | 6350 | 11000
PPPPPPRPPSRPKL [Q9BQI5 457-471] | 13700 | 13400
PPPPPERPPPIPPD [Q13191 554-568] | 29.1 | 74.8
PPPPPLRPPPPPPP [Q9BR93 13-27] | 283 | 1160
ASFQPARPHRARHP [O95612 13-26] | 3200 | 649
PPPPPPRPSKPTPS [Q14956 325-338] | 1290 | 14300
PPQSPRRPELPDLA [Q00973 42-55] | 51.7 | 164
PPPTPRRPASVNGS [O43584 96-109] | 170 | 1020
PPQIPSRPVRIPPG [P50570 828-841] | 8890 | 37500
